PMC5507929, “Structural and Biochemical Characterization of Apicomplexan Inorganic Pyrophosphatases” (Scientific Reports, 2017)
Values joined by “and” are separate entries in the source; they are usually repeats but may differ in a detail not shown here. Identical values can stand only once.

Columns and labels:
[1] = target: Plasmodium falciparum soluble inorganic pyrophosphatase (PfPPase), full length (Plasmodium falciparum); assay: native gel or EMSA; blue native PAGE of purified recombinant PfPPase from E. coli
[2] = target: Plasmodium falciparum soluble inorganic pyrophosphatase (PfPPase), full length (Plasmodium falciparum); assay: SEC; gel permeation chromatography on S-200 16/60; 30 mM HEPES-Na pH 7.2, 100 mM NaCl, 1 mM DTT; absorbance at 280 nm, compared with Mwt markers
[3] = target: Toxoplasma gondii soluble inorganic pyrophosphatase (TgPPase) (Toxoplasma gondii); assay: SEC; TgPPase in solution (Supplementary Figure 1b); the sentence names no method; gel filtration analysis is named in p-0022
PfPPase = target: T1, PfPPase (Plasmodium falciparum, UniProt O77392); details: active site (P1 phosphate position), chains B and C; Se-Met protein crystallised with 1 mM PPi and 3 mM MgCl2
T1 construct: gene MAL3P6.3
T1 sequence (O77392 1-380): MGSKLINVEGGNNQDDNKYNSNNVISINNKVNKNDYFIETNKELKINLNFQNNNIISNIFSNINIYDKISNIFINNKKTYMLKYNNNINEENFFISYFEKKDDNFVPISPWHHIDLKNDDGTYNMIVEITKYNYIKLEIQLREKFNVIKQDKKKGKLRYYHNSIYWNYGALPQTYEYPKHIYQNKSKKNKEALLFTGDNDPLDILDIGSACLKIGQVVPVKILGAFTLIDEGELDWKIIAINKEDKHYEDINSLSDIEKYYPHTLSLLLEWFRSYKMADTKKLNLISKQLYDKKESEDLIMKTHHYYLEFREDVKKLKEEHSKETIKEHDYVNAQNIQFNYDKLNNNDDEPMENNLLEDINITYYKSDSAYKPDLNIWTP

[4] = substrate: Nc1ncnc2c1ncn2[C@@H]1O[C@H](COP(=O)(O)OP(=O)(O)OP(=O)(O)O)[C@@H](O)[C@H]1O; assay: malachite green phosphate release assay; format: biochemical, Plasmodium falciparum; details: 1 mM Zn2+, pH 7.2, 37 °C, 100 mM NaCl, pH 7.2
Excerpt: (§1) malachite green phosphate release assay on PfPPase

[5] = substrate: O=P(O)(O)OP(=O)(O)O; assay: malachite green phosphate release assay; format: biochemical, Plasmodium falciparum; details: 3 mM Mg2+, pH 7.2, 37 °C, 100 mM NaCl, 1.4 nM enzyme, pH 7.2
Excerpt: as §1

[6] = substrate: O=P(O)(O)OP(=O)(O)OP(=O)(O)O; assay: malachite green phosphate release assay; format: biochemical, Plasmodium falciparum; details: 1 mM Zn2+, pH 7.0, 37 °C, 100 mM NaCl, pH 7.0
Excerpt: as §1

Molecule: Plasmodium falciparum soluble inorganic pyrophosphatase (PfPPase), full length (enzyme)
- stoichiometry N [1]: 2
- stoichiometry N [2]: 2 and 4

Molecule: Toxoplasma gondii soluble inorganic pyrophosphatase (TgPPase) (enzyme)
- stoichiometry N [3]: 2

Molecule: O=P(O)(O)O [Pi]
- X-ray crystal structure, 3.2 Å (PfPPase): PfPPase active site showed electron density for only one Pi molecule

B1: PfPPase (Plasmodium falciparum 3D7) (protein)
chain: MGSKLINVEGGNNQDDNKYNSNNVISINNKVNKNDYFIETNKELKINLNFQNNNIISNIFSNINIYDKISNIFINNKKTYMLKYNNNINEENFFISYFEKKDDNFVPISPWHHIDLKNDDGTYNMIVEITKYNYIKLEIQLREKFNVIKQDKKKGKLRYYHNSIYWNYGALPQTYEYPKHIYQNKSKKNKEALLFTGDNDPLDILDIGSACLKIGQVVPVKILGAFTLIDEGELDWKIIAINKEDKHYEDINSLSDIEKYYPHTLSLLLEWFRSYKMADTKKLNLISKQLYDKKESEDLIMKTHHYYLEFREDVKKLKEEHSKETIKEHDYVNAQNIQFNYDKLNNNDDEPMENNLLEDINITYYKSDSAYKPDLNIWTP
notes: full length 1-380, pETM41, MBP-6xHis tag cleaved with TEV, E. coli BL21-CodonPlus; ~45 kDa, dimer; crystal protein Se-Met labelled
- Km [4]: 64 ± 4.2 µM
- kcat [4]: 6.3 ± 1.2 s⁻¹
- kcat/Km [4]: 90000 M⁻¹ s⁻¹
- Km [5]: 10 ± 1.8 µM
- kcat [5]: 266 ± 11.4 s⁻¹
- kcat/Km [5]: 2.66e+07 M⁻¹ s⁻¹
- Km [6]: 1.6 ± 0.3 µM
- kcat [6]: 26.3 ± 3 s⁻¹
- kcat/Km [6]: 1.6e+07 M⁻¹ s⁻¹
